{"source": "patent US20090192048A1", "about": "“METHOD OF PRODUCING A […] AGENT FOR BINDING A LIGAND” (priority 2005, published 2009)", "assay_type_in_all_cases": "physicochemical", "key": {"[1]": {"experiment": "Retention of peptides on Greiner polypropylene V-bottom wells", "settings": "400V scan", "how_it_was_run": "(§1)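 Peptides (5 μM) and TAMRA dried from 5 mM tris-HCl pH 8.0 in 75% acetonitrile in V-bottom wells; some wells washed 15 min at room temperature with 1 M NaCl in 10 mM tris-HCl pH 8.0. Residue redissolved in 10 mM tris-HCl pH 8.0/50% acetonitrile; retained fluorescence imaged with 532 nm excitation, 580 BP 30 filter.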"}, "[2]": {"experiment": "Time-dependent persistence of peptide 2DOS-2 on a polypropylene hydrophobic surface in aqueous buffer", "procedure": "The time-dependent persistence of peptide 2DOS-2 (see above) deposited onto a polypropylene hydrophobic surface in the presence of aqueous buffer was investigated as shown below:\nTwelve 100 μl aliquots of 5 μM peptide 2DOS-2 in 5 mM tris-HCl (pH 8.0) in 75% (v/v) aqueous acetonitrile were dispensed to the wells of the top row of a Costar microtitre plate.\n(§2) The peptide samples were allowed to evaporate to dryness in the dark.\nThe dried peptide samples in wells 1-10 were incubated with 250 μl of 1 M NaCl in 10 mM tris-HCl (pH 8.0) for the time indicated below at room temperature. All supernatants were pipetted up and down 8 times after incubation and the supernatants were then removed and placed in the wells of the bottom row of the microtitre plate.\n(§3) The residual surface-bound peptides in all twelve wells were finally resuspended in 50 μl of 10 mM tris-HCl (pH 8.0) in 50% (v/v) aqueous acetonitrile and the microtitre plates were imaged at 200 μm resolution on a Typhoon Trio Plus variable mode imager (Amersham Biosciences) with the green (532 nm) laser and the 580 BP 30 filter at the PMT voltages indicated below and at normal sensitivity. The scan height was set at +3 mm and the sample was pressed during scanning.\n(§4) The fluorescence images were analysed using ImageQuant TL v2003.03 (Amersham Biosciences)."}, "[3]": {"experiment": "pH resistance of peptide 2DOS-2 deposited onto a polypropylene hydrophobic surface", "settings": "for Retained fluorescence: 100 mM phosphate buffer 30 minutes", "procedure": "The pH resistance of peptide 2DOS-2 (see above) deposited onto a polypropylene hydrophobic surface was investigated:\nTwelve 50 μl aliquots of peptide 2DOS-2 in 10 mM tris-HCl (pH 8.0) in 50% (v/v) aqueous acetonitrile were dried down in the wells of a Costar microtitre plate.\nas §2\nThe dried peptide samples in the first eleven wells were incubated with 200 μl of 100 mM phosphate buffer for 30 minutes at room temperature according to the scheme shown in Table 3:\nas §3, with “All supernatants were pipetted off and the residual” for “The residual”, “microtitre plate was” for “microtitre plates were”\nas §4\nQuantification data for peptide 2DOS-2 retention (using data from the 300V scan) are given in Table 8 and graphically in FIG. 19: […]"}, "[4]": {"experiment": "Retention of peptides on Costar polypropylene V-bottom wells", "settings": "400V scan", "how_it_was_run": "as §1"}, "[5]": {"experiment": "Retention of peptides 2DOS-1 to 2DOS-16 on a hydrophobic surface (polypropylene microtitre plate wells), water wash", "settings": "400V scan", "how_it_was_run": "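10 μM peptides, with TAMRA, in 10 mM tris-HCl pH 8.0 in 50% acetonitrile, dried overnight in polypropylene wells, then washed ten times with water. Retained peptide resuspended in the same solvent and fluorescence imaged (532 nm excitation, 580 nm filter). Quantified from 400 V scans.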"}, "[6]": {"settings": "washed 15 minutes in 1 M NaCl in 10 mM tris-HCl (pH 8.0)"}}, "note": "Ends that are not written are not given here."}
{"substance": "N-TAMRA-Phe-Asp- Phe-Ala-Phe-Ser- Phe-Lys-Phe-C ({TAMRA}-FDFAFSFKF) [Peptide 2DOS-2]", "values": [{"measurement": "Percent retention", "setting": "[1]", "result": 78, "unit": "%"}, {"measurement": "Untreated fluorescence", "setting": "[1]; unwashed", "result": "3,512,023"}, {"measurement": "Retained fluorescence", "setting": "[1]; [6]", "result": "2,731,827"}, {"measurement": "Percent retention", "setting": "[2]; 0 minutes in 1 M NaCl/10 mM tris-HCl (pH 8.0)", "result": 90, "unit": "%"}, {"measurement": "Retained fluorescence", "setting": "[2]; 0 minutes in 1 M NaCl/10 mM tris-HCl (pH 8.0), 300V scan", "result": "904,211"}, {"measurement": "Stability of retention on polypropylene over time (in words)", "setting": "[2]; 1 M NaCl/10 mM tris-HCl (pH 8.0), up to 510 minutes", "result": "stable for extended periods of time"}, {"measurement": "Percent retention", "setting": "[2]; 2.5 minutes in 1 M NaCl/10 mM tris-HCl (pH 8.0)", "result": 90, "unit": "%"}, {"measurement": "Retained fluorescence", "setting": "[2]; 2.5 minutes in 1 M NaCl/10 mM tris-HCl (pH 8.0), 300V scan", "result": "902,082"}, {"measurement": "Untreated fluorescence (average)", "setting": "[2]; 300V scan, unwashed wells", "result": "1,000,613"}, {"measurement": "Percent retention", "setting": "[2]; 5 minutes in 1 M NaCl/10 mM tris-HCl (pH 8.0)", "result": 85, "unit": "%"}, {"measurement": "Retained fluorescence", "setting": "[2]; 5 minutes in 1 M NaCl/10 mM tris-HCl (pH 8.0), 300V scan", "result": "847,767"}, {"measurement": "Percent retention", "setting": "[2]; 10 minutes in 1 M NaCl/10 mM tris-HCl (pH 8.0)", "result": 79, "unit": "%"}, {"measurement": "Retained fluorescence", "setting": "[2]; 10 minutes in 1 M NaCl/10 mM tris-HCl (pH 8.0), 300V scan", "result": "792,427"}, {"measurement": "Percent retention", "setting": "[2]; 20 minutes in 1 M NaCl/10 mM tris-HCl (pH 8.0)", "result": 75, "unit": "%"}, {"measurement": "Retained fluorescence", "setting": "[2]; 20 minutes in 1 M NaCl/10 mM tris-HCl (pH 8.0), 300V scan", "result": "749,522"}, {"measurement": "Percent retention", "setting": "[2]; 40 minutes in 1 M NaCl/10 mM tris-HCl (pH 8.0)", "result": 77, "unit": "%"}, {"measurement": "Retained fluorescence", "setting": "[2]; 40 minutes in 1 M NaCl/10 mM tris-HCl (pH 8.0), 300V scan", "result": "769,659"}, {"measurement": "Percent retention", "setting": "[2]; 80 minutes in 1 M NaCl/10 mM tris-HCl (pH 8.0)", "result": 74, "unit": "%"}, {"measurement": "Retained fluorescence", "setting": "[2]; 80 minutes in 1 M NaCl/10 mM tris-HCl (pH 8.0), 300V scan", "result": "740,227"}, {"measurement": "Percent retention", "setting": "[2]; 160 minutes in 1 M NaCl/10 mM tris-HCl (pH 8.0)", "result": 74, "unit": "%"}, {"measurement": "Retained fluorescence", "setting": "[2]; 160 minutes in 1 M NaCl/10 mM tris-HCl (pH 8.0), 300V scan", "result": "739,600"}, {"measurement": "Percent retention", "setting": "[2]; 320 minutes in 1 M NaCl/10 mM tris-HCl (pH 8.0)", "result": 81, "unit": "%"}, {"measurement": "Retained fluorescence", "setting": "[2]; 320 minutes in 1 M NaCl/10 mM tris-HCl (pH 8.0), 300V scan", "result": "805,530"}, {"measurement": "Percent retention", "setting": "[2]; 510 minutes in 1 M NaCl/10 mM tris-HCl (pH 8.0)", "result": 80, "unit": "%"}, {"measurement": "Retained fluorescence", "setting": "[2]; 510 minutes in 1 M NaCl/10 mM tris-HCl (pH 8.0), 300V scan", "result": "803,741"}, {"measurement": "Untreated fluorescence", "setting": "[3]; 300V scan, unwashed well", "result": "815,706"}, {"measurement": "Stability of retention on polypropylene over pH (in words)", "setting": "[3]; pH 4.51 to 8.52", "result": "stable over a broad range of pH values"}, {"measurement": "Percent retention", "setting": "[3]; wash pH 4.51", "result": 83, "unit": "%"}, {"measurement": "Retained fluorescence", "setting": "[3]; wash pH 4.51, 300V scan", "result": "681,015"}, {"measurement": "Percent retention", "setting": "[3]; wash pH 5.65", "result": 71, "unit": "%"}, {"measurement": "Retained fluorescence", "setting": "[3]; wash pH 5.65, 300V scan", "result": "582,482"}, {"measurement": "Percent retention", "setting": "[3]; wash pH 6.02", "result": 67, "unit": "%"}, {"measurement": "Retained fluorescence", "setting": "[3]; wash pH 6.02, 300V scan", "result": "548,329"}, {"measurement": "Percent retention", "setting": "[3]; wash pH 6.25", "result": 67, "unit": "%"}, {"measurement": "Retained fluorescence", "setting": "[3]; wash pH 6.25, 300V scan", "result": "542,595"}, {"measurement": "Percent retention", "setting": "[3]; wash pH 6.47", "result": 72, "unit": "%"}, {"measurement": "Retained fluorescence", "setting": "[3]; wash pH 6.47, 300V scan", "result": "589,528"}, {"measurement": "Percent retention", "setting": "[3]; wash pH 6.62", "result": 69, "unit": "%"}, {"measurement": "Retained fluorescence", "setting": "[3]; wash pH 6.62, 300V scan", "result": "566,496"}, {"measurement": "Percent retention", "setting": "[3]; wash pH 6.79", "result": 71, "unit": "%"}, {"measurement": "Retained fluorescence", "setting": "[3]; wash pH 6.79, 300V scan", "result": "576,655"}, {"measurement": "Percent retention", "setting": "[3]; wash pH 6.98", "result": 70, "unit": "%"}, {"measurement": "Retained fluorescence", "setting": "[3]; wash pH 6.98, 300V scan", "result": "570,653"}, {"measurement": "Percent retention", "setting": "[3]; wash pH 7.18", "result": 72, "unit": "%"}, {"measurement": "Retained fluorescence", "setting": "[3]; wash pH 7.18, 300V scan", "result": "586,083"}, {"measurement": "Percent retention", "setting": "[3]; wash pH 7.47", "result": 75, "unit": "%"}, {"measurement": "Retained fluorescence", "setting": "[3]; wash pH 7.47, 300V scan", "result": "614,028"}, {"measurement": "Percent retention", "setting": "[3]; wash pH 8.52", "result": 81, "unit": "%"}, {"measurement": "Retained fluorescence", "setting": "[3]; wash pH 8.52, 300V scan", "result": "661,781"}, {"measurement": "Percent retention", "setting": "[4]", "result": 94, "unit": "%"}, {"measurement": "Untreated fluorescence", "setting": "[4]; unwashed", "result": "5,692,134"}, {"measurement": "Retained fluorescence", "setting": "[4]; [6]", "result": "5,349,601"}, {"measurement": "Initial fluorescence (×10^3)", "setting": "[5]; 100 μl of 10 μM peptide before drying and washing", "result": "32,492 ×10^3"}, {"measurement": "Recovered fluorescence (×10^3)", "setting": "[5]; dried, washed ten times with 250 μl water, resuspended", "result": "15,704 ×10^3"}]}
